One assay addresses rFel d1.mFc (dimeric) (cat (Felis domesticus)). Put plainly: SPR Biacore T200, mAb captured by anti-human Fc, antigen injected.
Assay [1] concerns the target T1, Fel d1 (B-A)-mmH (cat (Felis domesticus)).
T1 construct: Expressed in CHO cells; also called rFel d1.mmH; rFel d1-mmH
The assay is described as above.
Text: (§1) The binding kinetic parameters were obtained by globally fitting the double reference subtracted data to a 1:1 binding model with mass transport limitation using Biacore T200 Evaluation Software, version 1.0.

The target in assay [2] is T1, Fel d1 (B-A)-mmH. Put plainly: SPR, mAb captured, Fel d1 (B-A)-mmH injected, 25 C.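 Note: rate constants obtained by fitting sensorgrams to a one-to-one binding model, Kd computed as koff over kon, half-life derived from koff.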 Background: In SPR one partner is held on a chip, and binding of the other changes the refractive index at the surface.
Experimental: Antibody-antigen association was monitored for 3 to 5 minutes, and the dissociation of antigen from the captured monoclonal antibody (in running buffer alone at 25° C.) was monitored for 10 or 15 minutes. Kinetic association (kₐ) and dissociation (kₐ) rate constants were determined by processing and fitting the data to a 1:1 binding model using Scrubber 2.0 curve fitting software. Binding dissociation equilibrium constants (KD) and dissociative half-lives (t_{1/2}) were calculated from the kinetic rate constants as: KD=kd/kₐ and t_{1/2}=ln(2)/kₐ.

For orientation: Kd means the concentration at which binding is half-saturated. Read a low Kd as tighter binding. The koff is the first-order rate constant of dissociation. Low values mean a long-lived complex, high ones a short-lived complex. What is called kon is the rate constant with which the complex forms. Low readings indicate slower complex formation, high ones faster complex formation.

Sequence of rFel d1.mFc (dimeric) (cat (Felis domesticus)) (chain, as listed by the source limits assumed): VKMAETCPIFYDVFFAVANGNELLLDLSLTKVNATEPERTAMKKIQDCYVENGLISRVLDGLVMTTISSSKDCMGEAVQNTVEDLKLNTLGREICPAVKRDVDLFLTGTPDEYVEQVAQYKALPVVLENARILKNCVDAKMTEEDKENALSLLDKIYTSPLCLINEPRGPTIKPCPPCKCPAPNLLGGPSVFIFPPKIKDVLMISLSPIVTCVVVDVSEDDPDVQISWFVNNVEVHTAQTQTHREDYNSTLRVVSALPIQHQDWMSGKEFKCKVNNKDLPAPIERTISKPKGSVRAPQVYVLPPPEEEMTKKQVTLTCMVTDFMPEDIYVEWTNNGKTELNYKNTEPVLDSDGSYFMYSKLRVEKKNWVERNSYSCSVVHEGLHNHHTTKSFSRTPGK
T1 sequence (chain, as listed by the source limits assumed): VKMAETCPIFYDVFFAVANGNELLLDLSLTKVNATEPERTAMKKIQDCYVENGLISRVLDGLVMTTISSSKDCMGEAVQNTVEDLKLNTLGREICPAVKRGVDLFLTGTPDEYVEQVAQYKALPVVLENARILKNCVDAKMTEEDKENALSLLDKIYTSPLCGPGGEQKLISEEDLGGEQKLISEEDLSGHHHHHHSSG
Text for rFel d1.mFc (dimeric): as §1

B1: H4H1232N (antibody, human IgG4, V domains shown)
VH: EVQLVESGGGLVKPGGSLRLSCAASGFTFRNYNINWVRQAPGKGLEWVSLISGSSSYIYYADSVKGRFTVSRDNAKNSLYLQMNSLRAEDTAVYYCARRTLSYYVMDVWGQGTTVTVSS
VL: DIQVTQSPSPLSASVGDRVTITCRASQGISNYLAWYQQKPGRVPQLLIYAASTLQSGVPSRFSGSGSGTDFTLTISSLQPEDVATYYCQKYNSAPYTFGQGTKLEIK
notes: human IgG4 Fc (prefix H4H); also called REGN1908
With B1, in the assay with rFel d1.mFc (dimeric), the affinity, expressed as Kd, was 0.0316 nM; the T1/2 turned out to be 159 min; the koff is 7.25e-05 s⁻¹; the kon stood at 2.3e+06 M⁻¹ s⁻¹. In the assay with Fel d1 (B-A)-mmH [1], this molecule yielded a Kd of 0.187 nM, a T1/2 of 46 min, a koff of 0.000251 s⁻¹ and a kon of 1.34e+06 M⁻¹ s⁻¹. In the assay with Fel d1 (B-A)-mmH [2], this molecule had a Kd of 0.144 nM, a koff of 0.000258 s⁻¹, a kon of 1.79e+06 M⁻¹ s⁻¹ and a t1/2 of 45 min.

B2: H4H2636P (antibody, human IgG4, V domains shown)
VH: EVQLVESGGGLVQPGGSLRLSCAASGFTFSSYAMSWVRQAPGKGLEWVSAISGRGYNADYADSVKGRFTISRDNSKNTLYLQMNSLRAEDTAVYYCAKLEYFDYWGQGTLVTVSS
VL: DIQMTQSPSTLSASVGDRVTITCRASQSISSWLAWYQQKPGKAPKLLIYKASSLESGVPSRFSGSGSGTDFTLTISSLRPEDFATYYCQQYNSYPLTFGGGTKVEIK
notes: human IgG4 Fc (prefix H4H); also called REGN1909
In the assay with rFel d1.mFc (dimeric), B2 had a Kd of 0.0978 nM, a T1/2 of 254 min, a koff of 4.55e-05 s⁻¹ and a kon of 466000 M⁻¹ s⁻¹. In the assay with Fel d1 (B-A)-mmH [1], this molecule displayed a Kd of 0.912 nM, a T1/2 of 49 min, a koff of 0.000235 s⁻¹ and a kon of 257000 M⁻¹ s⁻¹. In the assay with Fel d1 (B-A)-mmH [2], this molecule returned a dissociation constant Kd of 0.912 nM, a dissociation rate constant (koff) of 0.000235 s⁻¹, a kon of 257000 M⁻¹ s⁻¹ and a t1/2 of 49 min.
